According to the RNAGym collection of RNA variant scans (doi:10.1073/pnas.2313332121):

B1: TPR t1 (parent)
chain: GACCAAUCUGCCCUCAGAGCUCGAGAACAUCUUCGGAUGCAGAGGAGGCAGGCUUCGGUGGCGCGAUAGCGCCAACGUCCUCAACCUCCAAUGCAUCCCACCACAUGAUGAUGCCUGAAGAGCCUUGGUUUUUUG

Variants of: B1
Experiment: polymerase ribozyme fitness, log enrichment relative to wild type (log ratio); higher = more active; in vitro selection for triplet polymerase activity
Summary of the method: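 A single round of triplicate in vitro selection, including frozen incubation at −7 °C, was applied to PCR-built, transcribed mutant libraries of each subunit of a heterodimeric triplet polymerase ribozyme. Illumina sequencing of input and output libraries retained genotypes with ≥10 input reads and ≥1 read per output. Fitness is the base-2 logarithm of genotype enrichment divided by wild-type enrichment, from inverse-variance-weighted replicate averages.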

Variant	polymerase ribozyme fitness (log ratio)
C101A C115A	-1.02
C101A C115G	-2.5
C104A U133A	-1.68
A103C A111U U116C	-4.99
A103U G120A C123U	-4.53
C94A C101G C123G	-1.92
C101U G113A	-1.2
C97G G120C	-4.64
C104U C123G	1.92
C101G G135U	-2.44
C97G C114U	-5.14
C97G G120A A121U	-3.45
C101G G120U U129A	-3.12
C99U U112C G117A G128A	-5.01
C94G A118U	-0.748
A103U A119G	-4.5
C94A G117U U125A	-5.92
C98A C123A	-3.79
C104U G122A	0.442
A95U A111U G120U	-5.49
C98A A121U	-2.52

Variant	polymerase ribozyme fitness (log ratio)
A95U G113A G122A	-3.26
A95G C101A A111C	-1.91
A103C G113C	-5.94
C104A U112G C123G	-1.23
C98U A108G	-6.36
C102A U112A C115A U116G C124G U133C	-3.77
C94G U131A	-1.9
C101G U129G	-2.29
C104U G120U G135U	-0.513
G93U U112G G120C C123U	-2.5
C97U G128A	-2.66
C97G G107C A111U	-7.12
A105C U112C	0.139
C94A A121U	1.37
A95U U116G	-2
A100U G117U	-3.66
C101U G117U	-1.13
C97U C101A G122C C123A U125A	-1.66
A105C U133A	-2.08
A100C U106A	-0.525
A95U C114G	-2.97

Variant	polymerase ribozyme fitness (log ratio)
A103G C124U	-3.1
C102A G128C U132G G135U	-3.41
U96G C123G	1.1
C101A U130G	-2.8
C102A U106G	-4.52
U96G U125A	-0.674
C102U U109G	-5.46
A105C G120C	-1.78
A105C G120U	-2.25
C94U C102G	-6.09
A105C U130C	-1.55
U96C U133A	-0.456
C98U U129C	-1.46
C94U C115U A121G	-2.09
C102U A119U C123A U126A	-2.22
C98G G110A	-4.98
C97U A103U	-5.3
C98U G117U G120C U132C	-3.23
C99A C124A	-4.35
C101A U106C U133A	-0.867
A100C A111G	0.924

Variant	polymerase ribozyme fitness (log ratio)
C102A C124A U130A	-0.438
C102U U125G	-1.4
A95C C123G	-0.428
U96G C124A	1.39
A103U A111G	-3.31
C101A C102A A119U U130A	-5.43
C104U C123A U125G	1.28
A95C C123G U132A	-0.459
C97U U112G U116A U129C	-4.3
C104U A105C U131C	-2.36
C97U U106G C123U	-2.04
A95C G113U	-3.39
A95G A121U	2.11
C97U U129C	-1.16
C101A U112A	0.611
A95G A119G	1.26
A95C G113U G120C U125A	-3.79
U96G A111G U125G	-1.74
C102A G120A A121C C124U	-0.193
C94A U132A	-0.269
C98A C124A	-2.34
